# Measurements published in article PMC3775092.
# Target: KillerRed
# Assay: SEC
substance,measurement,value
KillerRed,stoichiometry N,2
